Results: patent US20160207996A1 (ARGEN X N V, published 2016)

molecular target: human Nav1.7 (full length) (human) (UniProt Q15858); assay: cell-based or functional assay

| Binder | % inhibition of inward current following P02 voltage protocol, 10 µg/ml | % inhibition of inward current following P02 voltage protocol, 25 µg/ml | % inhibition of inward current following P02 voltage protocol, 100 µg/ml |
| --- | --- | --- | --- |
| 9A6 (antibody, V domains shown) VH: EVQLVQPGAELRNPGASVKVSCKASGYTYTSAYIVWVRQAPGEGLEWMGRIDPEDGGTKYAQKFQGRVTFTADTSTNTAYVELSSLRSDDTAVYYCTAGLDYWGKGTLVTVSS VL: ATMLTQSPGSLSVVPGESASISCKASQSLVHSDGMTYLYWLQQKPGQSPQRLIYRVSRRGSGVPDRFTGSGSGTDFTLNISDMKAEDAGVYYCAQDTYYPYSFGSGTSVEIK | 16.9% | 28% | 36.2% |

molecular target: T1, Nt-GCGR-hFc (human, UniProt P47871 26-136); assay: scFv binding ELISA, periplasmic extract on coated Nt-GCGR
T1 construct: domain: N-terminal domain; also called Nt-GCGR-Fc; recombinant N-terminal domain of GCGR; not shown: hFc
T1 sequence (P47871 26-136): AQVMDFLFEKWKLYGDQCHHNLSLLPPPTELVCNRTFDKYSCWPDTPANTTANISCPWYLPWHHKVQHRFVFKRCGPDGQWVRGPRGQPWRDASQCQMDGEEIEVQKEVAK

| Binder | ScFv binding ELISA signal |
| --- | --- |
| scFv C2 (scFv) QLQLVESGGGLQQPGGSLRLSCAASGFTFSSYAMGWVRQAPGKGLEWISIILNDGHRTYYTDSVKGRFTISRDNAKDTLSLQMNSLKPEDTAVYFCVKYVLNWAISDWGQGTQVTVSSQSVLTQPPSVSGSPGKTVTISCAGTSSDVGYGNYVSWYQQLPGMAPKLLIYNANKRASGITDRFSASKSGNTASLTISGLQSGDEAVYYCASYRYRDNAVFGGGTHLTVLG | 0.465 |
| scFv D7 (scFv) QVQLVESGGGLVQPGGSLRLSCAASGFTFSWYAMSWVRQGPGKGLEWVSAINGGGGSTSYEDSVKGRFTISRDNAKNTLYLEMNSLKPEDTAVYYCARYSDGYSGSYTYTDMDYWGKGTLVTVSSQAVVTQEPSLSVSPGGTVTLTCGLSSGSVTSSNYPVWYQQTPGQAPHLLIYNTNTRHSGVPSRFSGFISGNKAALTITGAQPEDEADYYCASYRRSGRAVFGGGTHLTVLG | 0.1 |
| scFv B2 (scFv) EVQLQESGGGLVQPGGSLRLSCATSGFTFSNYYMSWVRQAPGKGPEWVSSIYSDLSTTYYADSVKGRFTISRDRAKNTLSLQMNSLKSEDTAVYYCARLSTVAGVDYWGKGTLVTVSSSYELTQSPSVSVALRQTAKITCGGNNIGSKSAQWYQQKPGQAPVLVIYADSRRPSGIPERFSGSNSGNTATLTISGAQAEDEADYYCQVWDSSAAVFGGGTHLTVLG | 0.137 |
| scFv A4 (scFv) QLQVVESGGGLVQPGGSLRLSCAASGFTFDSYWMYWVRQAPGKGLEWLSAINPGGGMTYYADSVKGRFTIARDNAKNTVYLQMNSLKSEDTAVYYCAKELRGSYYYISSEYDYWGQGTQVTVSSLPVLTQPPSVSGTLGKTVTISCAGTSSDIGDYNYVSWYQQLPGTAPKLLIYKVSTRASGIPDRFSGSKSGNTASLTISGLQSEDEADYYCASYRTSNNVVFGGGTHLTVLG | 0.342 |
| scFv C4 (scFv) QVQLQESGPGLVKPSQTLSLTCTVSGGSITTNYYYWSWIRQPPGKGLEWMGAIAYSGSTYYSPSLKSRTSISRDTSKNQFTLQLSSVTPEDTAVYYCARGYYSGSSLDFGSWGQGTQVTVSSLPVLTQPSAVSVSLGQTARITCQGGNVGSYYTSWYQQKPGQAPVLVIYKDSERPSGIPERFSGSSSGNTATLTVSGAQAEDEGDYYCQVWDSSAAVFGGGTHLTVLG | 0.274 |
| scFv B4 (scFv) EVQVQESGPGLVKPSQTLSLTCTVSGGSITTDYSYWSWIRQPPGKGLEWMGAIAFSDTTYYSPSLKSRTSISRDTSKNQFTLQLSSVTPEDTAVYYCARLSTVAGMDYWGKGTLVTVSSASAAASGSYELTQSPSVSVALRQTAKITCGGNNIGSKSAQWYQQKPGQAPVLVIYADNRRPSEIPERFSGSNSGDTATLTISGAQAEDEADYYCQVWDSSANAAVFGGGTHLTVLG | 0.476 |
| scFv A1 (scFv) QVQLVESGGGLVQPGGSLRLSCAASGFTFSSYAMTWVRQAPGKGLEWVSTITSNGDSTSYADSVKGRFTISRDNAKNTLYLQMDSLKPEDTAVYYCAKLGDGSYWFYYYGMDYWGQGTQVTVTSSSYELTQSSAVSLSLGQTARITCQGDNLGRYYVNWYQQKPGQAPVQVIYGNSNRPSGIPERFSGSSSGGTATLTISGAQAEDEADYYCQTYENSGVNLVFGGGTKLTVLG | 2.18 |
| scFv C1 (scFv) ELQVVESGGGLVPGGSLRLSCAASGFRVSVNAMSWVRQAPGKGLEWVSHIGSGGITGYADSVKGRFTISRDSAKNTLYLQMNSLKPEDTAVYYCTKRSSGYAWGQGTQVTVSSQAGLTQLPSVSGSPGQKITISCTGSSNNIGAGYSVQWFQQVPGSPPRLLIDGATNRDSGVPDRFSDSRSGSSASLTITGLQAEDEADYYCECYDNSLRGAVFGGGTHLTVLG | 1.54 |
| scFv D5 (scFv) EVQVQESGGGLVQPGGSLRLSCATSGFTFSNYYMSWVRQAPGKGPEWVSSIYSDLSTTYYADSVKGRFTISRDRAKNTLYLQMNSLKSEDTAVYYCARLSTVAGVDYWGKGTLVTVSSSYELTQSPSVSVALRQTAKITCGGNNIGDKSAQWYQQKPDQAPVLVIYADNRRPSEIPERFSGSNSGDTATLTISGAQAEDEADYYCQVWDSGANAAVFGGGTHLTVLG | 0.268 |
| scFv A7 (scFv) QLQVVESGGGLVQPGGSLRLSCATSGFTFSNYYMSWVRQAPGKGPEWVSSIYSDLSTTYYADSVKGRFTISRDRAKNTLYLQMNSLKSEDTAVYYCARLSTVAGVDYWGKGTLVTVSSSYELTQSPSVSVALRQTAKITCGGNNIGSKSAQWYQQKPGQAPVLVIYADSRRPSGIPEKFSGSNSGNTATLTISGAQAEDEADYYCQVWDSSANAAVFGGGTHLTVLG | 0.394 |
| scFv C3 (scFv) QVQRQESGGGLVQPGGSLRLSCATSGFTFSNYYMSWVRQAPGKGPEWVSSIYSDLSTTYYADSVKGRFTISRDRAKNTLYLQMNSLKSEDTAVYYCARLSTVAGVDYWGKGTLVTVSSSYELTQSPSVSVALRQTAKITCGGNNIGSKSAQWYQQKPGQAPVLVIYADVRRPSEIPERFSGSNSGNTATLSVSGAQAEDEADYYCQVWDSSANAAVFGGGTHLTVLG | 0.058 |
| scFv A8 (scFv) EVQVQESGPGLVKPSQTLSLTCTVSGESITTNYYYWNWIRQPPGKALEWMGAIGDSGTTWYNPSLKSRTSISRDTSKNQFTLQLISVTPEDTAVYYCARGFYDGSSLDFASWGQGTQVTVSSLSYELTQSPSVSVALRQAAKITCGGNNIASKFVNWYQQKPGQAPILVISKDTNRPSGIPERFSGSNSGNTATLTVSGAQAEDEADYYCQVWDGSAAVFGGGTHLTVLG | 1.7 |
| scFv D8 (scFv) EVQLVESEGGSVQPGDSLRLSCAASGFSFSNAGMSWVRQAPGKGLEWVSAIIPGGYAPYYADSVKGRFTISRDNAKNTVSLQMNSLKPEDTALYYCAKYGGNWDLEVWGQGTLVTVSSQSALTQPPSVSGTLGKTVTISCTGTSSDIGGYNSVSWYQQLPGTAPKLLIYEVNKRASGIPDRFSGSKSGDTASLTISGLQSADEADYYCASYRNTRKSVFGGGTHLTVLG | 1.14 |
| scFv C12 (scFv, part only; not given: GS linker, not shown: small tags and cut ends) scFv, part: ELQVVESGGGLVPGGSLRLSCAASGFRVSVNAMSWVRQAPGKGLEWVSHIGSGGITGYADSVKGRFTISRDSAKNTLYLQMNSLKPEDTAVYYCTKRSSGYAWGQGTQVTVSSQAGLTQLPSVSGSPGQKITISCTGSSNNIGAGYSVQWFQQVPGSPPRLLIDGATNRDSGVPDRFSDSRSGSSASLTITGLQAEDEADYYWMLQQPQGVLCSAEGPI | 2.56 |
| scFv B8 (scFv) QVQLVESGGGLVQPGGSLRLSCATSGFTFSNYYMSWVRQAPGKGPEWVSSIYSDLSTTYYADSVKGRFTISRDRAKNTLYLQMNSLKSEDTAVYYCARLSTVAGMDYWGKGTLVTVSSSYELTQSPSVSVALRQTAKITCGGTNIGSKSAQWYQQKPGQAPMLVIYGDSRRPSGIPERFSGSNSGNTATLTISGAQAEDEADYYCQVWDSSANAAVFGGGTHLTVLG | 0.205 |
| scFv C5 (scFv) QLQLVESGGGLVEPGGSLRLSCAASGFTFSNYYMSWVRQAPGKGPEWVSSIYSDLSTTYYADSVKGRFTISRDRAKNTLYLQMNSLKSEDTAVYYCARLSTVAGVDYWGKGTLVTVSSSYELTQSPSVSVALRQTAKITCGGNNIGSKSAQWYQQKPGQAPVLVIYADSRRPSGIPERFSGSNSGNTATLTISGAQAEDEADYYCQVWDSSSNGAVFGGGTHLTVLG | 1.88 |
| scFv A5 (scFv) ELQLVESGGGLVQPGGSLRLSCAASGSTFSTAAMSWVRQAPGKGLEWVSAISSFGASTSYADSVKGRFTISRDIAKNTLYLQMNSLKPEDAAVYYCANVGLHPSWGFTSGFWGQGTQVTVSSSSALTQPPSVSGSPGKTVTISCAGTSSDVGYGNYVSWYQQLPGMAPKLLIHDVNKRASGITDRFSGSKSGNTASLTISGLQSEDEADYYCASYRRRNEVVFGGGTHLTVLG | 1.31 |
| scFv C10 (scFv) EVQLVQPGAELRNPGASVKVSCKASGYTFTAYYIDWVRQAPGQGLEWMGRIDPEDGGTTYEQKFQGRVTFTADTSTSTVYVELSSLRSEDTAVYYCARSTEIPTIRYYGMDYWGKGTPVTVSSASAAASGSYELTQSPSVSVALRQTAKITCGGDNIGSKSAQWYQQKPGQAPVLVIYADSRRPSGIPERFSGSNSGNTATLTISGAQAEDEADYYCQVWDSSANAAVFGGGTHLTVLG | 0.88 |
| scFv D6 (scFv, part only; not given: GS linker, not shown: small tags and cut ends) scFv, part: QLQLVESGGGLVQPGGSLRLSCAASGGIFDVMGWYHQAPGKQRGLVASITPAGSTNYADSVKGRFTISRDNAKNTVYLQMNSLKPDDTGVYYCYADGIDPRYGGDEFWGQGTQVTVSSSYELTQSPSVSVALRQTAKITCGGDNIGSKSAQWYQQKPGQAPVLVIYAGSRRPSGIPERFSGSNSGNTATLTVSGAQAEDEANYSCQVWDSSANASVFGGGTHLTVLG | 1.09 |
| scFv B5 (scFv, part only; not given: GS linker, not shown: small tags and cut ends) scFv, part: EVQLVQPGAELRNPGASVKVSCKASGYTFTSHYIDWVRQAPGQGLEWMGRIDPEDGGTTYEQKFQGRVTFTADTSTSTVYVELSSLRSEDTAVYYCARSTEIPTIRYYGMDYWGKGTPVTVSSQSVLTQPSAVSVSLGQTARITCQGGSLGSYGANWHQQKPGQAPVLLIYGDNSRPSGIPERFSGSKSGGTATLTISGAQAEDEADYYCQSFDYSGNAVFGGGTHLTVLG | 0.508 |
